The values that follow come from publication PMC4627827, “SCARN a Novel Class of SCAR Protein That Is Required for Root-Hair Infection during Legume Nodulation”.

Data set [1] concerns the target LjARPC3 (yeast two-hybrid fusion) (Lotus japonicus). In words: two-hybrid; S. cerevisiae AH109; quantitative β-galactosidase (lacZ) activity under the control of the GAL4 promoter.
In data set [2] the target is NIN C-terminal half (RWP-RK domain) (Lotus japonicus, UniProt Q9S7B1 520-878). In words: EMSA; 0.5 or 1 ug protein; unlabeled competitor 5x, 10x or 50x; EMSA with LightShift chemiluminescent kit (Thermo); buffer, salt, pH and temperature not stated. Particulars: protein: recombinant; tags: C-terminal His; label: biotin; blunt. In general terms: In EMSA bound probe runs differently from free probe, usually more slowly.
NIN C-terminal half (RWP-RK domain), sequence (Q9S7B1 entry or part of it): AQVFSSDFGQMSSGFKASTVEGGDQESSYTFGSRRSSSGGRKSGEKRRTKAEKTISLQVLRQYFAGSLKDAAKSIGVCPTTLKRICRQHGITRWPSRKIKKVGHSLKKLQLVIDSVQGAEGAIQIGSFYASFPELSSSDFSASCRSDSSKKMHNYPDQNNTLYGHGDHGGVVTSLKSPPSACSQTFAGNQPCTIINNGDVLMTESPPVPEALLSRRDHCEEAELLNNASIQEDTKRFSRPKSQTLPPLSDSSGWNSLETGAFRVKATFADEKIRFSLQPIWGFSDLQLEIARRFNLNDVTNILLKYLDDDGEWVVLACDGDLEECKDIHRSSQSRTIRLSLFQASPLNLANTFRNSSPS

In turn, “SCARN C-terminal WA domain (yeast two-hybrid fusion) (domain or fragment)” yielded a β-galactosidase (LacZ) activity in data set [1] of 18.1 units.

B1: SCARN promoter S2 (dsDNA)
DNA 1: AAGAGGTGAAACTGAAGGAGTCAAGAGGATTGCAGAAGAA
DNA 2: TTCTTCTGCAATCCTCTTGACTCCTTCAGTTTCACCTCTT
Consider B1, for which the binding result in data set [2] is reported as “binds”.

B2: SCARN promoter S1 (dsDNA)
DNA 1: GTAGTAGAGAGATAGAGTGAGTGAAAGGGTTTGAGGAATG
DNA 2: CATTCCTCAAACCCTTTCACTCACTCTATCTCTCTACTAC
Consider B2, for which the binding result in data set [2] is “binds”.

B3: SCARN promoter S3 (dsDNA)
DNA 1: AGTCAAGAGGATTGCAGAAGAAAGTAGGGTTTGTGAATCG
DNA 2: CGATTCACAAACCCTACTTTCTTCTGCAATCCTCTTGACT
As to B3, in data set [2], the binding result was “binds”.
